Test results taken from the nanobody polyreactivity screen of Harvey et al. (2022).

experiment: yeast display, Sf9 membrane polyspecificity reagent, FACS + sequencing; frameworks hold sequencing errors
How it was run: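 Nanobodies came from a synthetic yeast display library in Saccharomyces cerevisiae BJ5465, induced with galactose for 36–48 hours and stained for 1 hour at 4 °C with 10% biotinylated, detergent-solubilized Sf9 membrane reagent. Cells were enriched on streptavidin microbeads and then FACS-sorted, with low and high (top ~1%) gates set on anti-HA fluorescence for expression and streptavidin fluorescence for reagent binding. Each polyreactivity label reflects the gate a clone came from. Genes were amplified by colony PCR, sequenced by MiSeq 2 × 250 and filtered by CDR length.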

Sequence	polyreactivity (PSR sort gate)
QVHLVESGGGLVQAGGSLRLSCAAAGRTFSSYAMAWYRQAPWQERELVAAITSGGTTYYADSVKGRFTISRDNAKNTVDLQMNSLKAEDPAFYYCARRSYLYDSYLTKKKYYDYCGQGTQVTVSS	low polyreactivity
QVHLVESGGGLVQAGGSLRLSCAASGFIFEPYAMGCYRQAPWKEWELVAAISSGGSTYADSVKGRFTISRDNAKNTVYLQMISLKPEDTAVYYCAADSYYSVWGFYFWGQGTQVTVSS	low polyreactivity
QVHLVESGGGLVQAGGSLRLSCAASGFIFKFDAMGWYRQAPGKEREMVAAITASSGRTNYADSVKGRFTISRDNAKNTVYLHMNSLKPEDTAVYFCAARRWPKYSAYRYDYWGQGTQVTVSS	high polyreactivity
QVHLVESGGGLVQAGGSLRLSCAASGFIFKKYAMGWYRQAPGKERELVAAIDSSGSTTYADSVKGRFTISRDNAKNTVYLQMNSLKPEDTAVYYCAAPFTVYRHAPDMDYWGQGTQVTVSS	low polyreactivity
QVHLVESGGGLVQAGGSLRLSCAASGFIFQYYAMGWYRQAPGKEREMVAAINRGGGTHYADSVQGRFTISRDNAKNTVYLQMNSLKPEVTAVYYCNKVYYWPGSRPSRYEYWGQGTQVTVSS	low polyreactivity
QVHLVESGGGLVQAGGSLRLSCAASGFIFRIYAMGWYRQAPGKERELVAAINSSVSTSYADSVKGRFTISRDNAKNTVYLQMNSLKPEDTAVYYCAASRWPYPSYLYIVDSWGQGTQVTVSS	low polyreactivity
QVHLVESGGGLVQAGGSLRLSCAASGFIFYSNMGWYRQAPGKESEFVAAITWRGGSTYADSVKRRFTISRDNAKNSVYLQMNILKPEDPAVSYCAGESYRAHTPGHPSCTRFGYWGQGTHVTVSS	high polyreactivity
QVHLVESGGGLVQAGGSLRLSCAASGFTFDTYDMGWYRQAPGKERELVAAIDRSGVSTYYADSVKGRFTISRDTAKNTVYLQMNSLKQEDPAVYYCAADLWQYDIASWDYTYDYWGQGTQVTVSS	low polyreactivity
QVHLVESGGGLVQAGGSLRLSCAASGFTFEGYAMGGYRQQPGKEREYADSVKGRFTISRDNAKNTVYLQMNSLKPEDTAVYYCASTSYVSSSRTIYSGFVEFEYLGQGTQVTVSS	low polyreactivity
QVHLVESGGGLVQAGGSLRLSCAASGFTFESYAMGWYRQAPGKERELVAAISDGGGDTYYADSVKGRFTISRDNAKNTVYLQMNSLKQEDTAVYYCAAEWDGNWYRGAGGYDYWGQGTQVTVSS	low polyreactivity
QVHLVESGGGLVQAGGSLRLSCAASGFTFNGYAMGWYRQAPGKESEMVAGITRRGGITYYADSVKGRFTISRYNAKNTVYLQMNSLKPEETAVYYCARDYIGHALIHHASLYYYWGQGTQVTVSS	high polyreactivity
QVHLVESGGGLVQAGGSLRLSCAASGFTFVRNAMGWYRQAPGKERELVAAISGSGGSTYYADSVKGRFTISRDTAKNTVYLQMNSLKPEDTAVYYCAAGWTRGWSLDYYYWGQGTQVTVSS	high polyreactivity
QVHLVESGGGLVQAGGSLRLSCAASGFTFVRYAMGWYRQAPGKERELVASISYSGGSTYYADSVKGRFTISRDNAKNTVYLQMNSLKPEDTAVYYCAALHRINTLLLPMDYWGQGTQVTVSS	high polyreactivity
QVHLVESGGGLVQAGGSLRLSCAASGFTIAFNAMGSYRQAPGKERELVASITGGGSTNYADSVKGRFTISRDNAKNTVYLQMNSLKPEDTAVYYCAARYFWAWERDLFLEFDYWGQGTQVTVSS	low polyreactivity
QVHLVESGGGLVQAGGSLRLSCAASGFTLANYAMGWYRQPPGKERELVAAIDYSGGGTYYADSVKGRFTISRDNAKNTVYLQMNSLKPEDTAVYYCAARRWSYYSAKYDYWGQGTQVTVSS	low polyreactivity
QVHLVESGGGLVQAGGSLRLSCAASGGIFFPNAMGWYRQAPWKERELVAAISWSAGSTYYADSVKGRFTISRDNAKNTVYLELNSVKPEDTAVYYCAAAGSKNTVLYGYYYWGQGTQVTVSS	low polyreactivity
QVHLVESGGGLVQAGGSLRLSCAASGGIFYPNAMGWYRQAPGKERELVAAISSGGGSTYYADSVKGRFTISRDNAKNTVYLQMNSLKPEDTAVYYCAASAYSLKSDVEYDYWGQGTLVTVSS	low polyreactivity
QVHLVESGGGLVQAGGSLRLSCAASGGTFSVYGMGWYRPAPGKERELVAAITVTGGRTYYADSVKGRFTISRDNAKNTVYLQMNSLKPVDSAVYYCNTLPWSRTKRDYWGQGTQVTVSS	low polyreactivity
QVHLVESGGGLVQAGGSLRLSCAASGIIFPSYAMGWYRQAPGKERELVAAIDGSGGITYYADSVKGRFTISRDNAKNTVYLQLNSLKPEDTAVYYCNAEREYYDYGNDDYWGPGTQVTVSS	low polyreactivity
QVHLVESGGGLVQAGGSLRLSCAASGIIFYDNTMGWYRQAPGTERELVASITWRGGSTYYADSVKGRFTISRDNAKNTVYLQMNSLKPEDTAVYYCNADSSDDYDYWGQGTQVTVSS	low polyreactivity
QVHLVESGGGLVQAGGSLRLSCAASGIIFYYYTMGWYRQPPGKERELVASISRDGGSTHYADSVKGRFTISRDNAKNTVYLQMNSLKPEDTAVYYCAARYPTGSSYAFYRRKVYYWGQGTQVTVSS	high polyreactivity
QVHLVESGGGLVQAGGSLRLSCAASGITFAWYAMGRYRQAPGKERELVAAITRGGGSTYYADSVKGRFTISRDNAKNTGYLQMNSLKPEDTAVYYCAARPYSYPYGYWGQGTQVTVSS	low polyreactivity

Sequence	polyreactivity (PSR sort gate)
QVHLVESGGGLVQAGGSLRLSCAASGITFDLYAMGWYRQAPGKERELVAASTYYADSVKGRFTISRDNAKNTVYLQMNSLKPEDTAVYYCNTREPVTYDYWGQGTQVTVSS	high polyreactivity
QVHLVESGGGLVQAGGSLRLSCAASGITFRRNAMGWYRQAPGKERELVARITVSGGTTYYADSVKGRFTISRDYAKNTVYLQMNSLKPEDTAVYYCAKVWHSSRVSPYDYWGQGTQVTVSS	low polyreactivity
QVHLVESGGGLVQAGGSLRLSCAASGITFTRYNMGWYRQAPGKERELVASIRRSGSTNYADSVKGRFTISRDNAKNTVYLQMNSLKPEDTAVFYCAAVNYGYPKPYDYWGQGTQVTVSS	high polyreactivity
QVHLVESGGGLVQAGGSLRLSCAASGLIFGDYAMGWYRQAPGKERELVAAITGSVTRRYYADSVKGRFTISRDNAKNTVYLQMNSLKPEDTAVYYCATVGYPYTLWHQMDYWGQGTQVTVSS	low polyreactivity
QVHLVESGGGLVQAGGSLRLSCAASGLIFNIYAMGWYRQAPGKERELVAAISKSGGSTYYADSVKGRFTISRDNAKNTVYLQMNSLKPEDTAVYYCAVVRNSYRVLRLNYWGQGTQVTVSS	high polyreactivity
QVHLVESGGGLVQAGGSLRLSCAASGLIFRRYAMGWYRQAPGKERELVAVISSGGRTYYADSVKGRFTISRDNAKNTVYLQMNSLKPEDTAVYYCAARTRSYWGTYGSYHYDYWGQGTQVTVSS	high polyreactivity
QVHLVESGGGLVQAGGSLRLSCAASGLIFSDYAMGWYRQAPGKERELVAAIRSGGRTYYADSVKGRFTISRDNAKNTVYLQMNSLKPEDTAVYYCNKLYRRSPVPREYDYWGQGTQVTVSS	high polyreactivity
QVHLVESGGGLVQAGGSLRLSCAASGLILSYNAMAWYRQAPGKERELDAAISYSGGSTYYADSVKGRFTITRDNAKNTVYLQMNSLITEDSAVYYCAAVWRRQGSAYLGSYGYDYWGQVTQVTVSS	high polyreactivity
QVHLVESGGGLVQAGGSLRLSCAASGLTFHRYAMGWYRQAPGKERELVAAINYSGGRTYYADSVKGRFTISRDNAKNSVYLQMNCLKPEDTEVYYCAAPRASGYYWGQGTQGTVSS	high polyreactivity
QVHLVESGGGLVQAGGSLRLSCAASGLTFWAYTLGWYRQAPGQERELVAAITSSGGRTYYADSVKGRFTISRDNAKNTVYLQMNSLKPEDTGVYYCNARIFRSPTPYDYWGQGTQVTVSS	high polyreactivity
QVHLVESGGGLVQAGGSLRLSCAASGNTFQRYTMGWYRQAPGKERELVAAITWSGGNTYYADSVKGRFTISRDNEKNTVYLQMNSLKPEDTAVYYCNADYPTTAYDYWGQGTQVTVSS	low polyreactivity
QVHLVESGGGLVQAGGSLRLSCAASGRIFAGYGMGWYRQAPGKERELVAAISSGGSTYYADSVKGRFTISRDNAKNPVYLQINSLKPEDTAVYYCAADTYTYYDYMARYYYWGQGTQVTVSS	low polyreactivity
QVHLVESGGGLVQAGGSLRLSCAASGRIFAYYTMGWNRQAPGKERELVARITKNGGSTYYAESVKGRFTISRDNAKNTVYLQMNSLKPEDTAVYYCNADSGYTGRRTRERYYYWGQGTQVTVSS	high polyreactivity
QVHLVESGGGLVQAGGSLRLSCAASGRIFGFYAMALYRQSPGKEREFVASISVRGASTYADSVKGRFTISRDNAKNTVYLQMNSLKPEDTAVYYCNAYGRVSKRYGYWGQGTQVTVSS	high polyreactivity
QVHLVESGGGLVQAGGSLRLSCAASGRIFGVNAMGWYRQAPGKERELVAAITWSGGSTYYADSVKGRFTISRDNAKITVYLEMNSLKPEDTAVYYCAVEGQFDDGWAWYDYWGQGTQVTVSS	high polyreactivity
QVHLVESGGGLVQAGGSLRLSCAASGRIFGYYAMGWYRQAPGKERELVARISSSGGSTYYADSVKGRFTISRDNAKNTVYLQMNSLKPEDTAVYYCNTASNRYPGWRAEFDYWGQGTQVTVSS	low polyreactivity
QVHLVESGGGLVQAGGSLRLSCAASGRIFQRNVMGWYRQAPGKERELVASITGGGTTNYADSVKGRFTISRDNAKNTVYLQMNSLKPEDTAVYYCAKGYGASNDPGYVRKRYGYWGQGTQVTVSS	low polyreactivity
QVHLVESGGGLVQAGGSLRLSCAASGRIFTYYAMGWYRQAPGKERELVAAINSRGGRTYYADSVKGRFTISRDNAKNTVYLQMNSLKPEDTAVYYCNKAVYFAWGWGLRDYDYWGQGTQVTVSS	high polyreactivity
QVHLVESGGGLVQAGGSLRLSCAASGRISHYNAMGWNRQAPGKERELVAAISSRGGSTYYADSVKGRFTISRDNAKNTVYLQMNSLKPEDTAVYFCAVRYWHWGKKITYDYWGQGTQVTVSS	high polyreactivity
QVHLVESGGGLVQAGGSLRLSCAASGRISQNALGWYRQAPGKEREVVAAITFSGGSTYYADSVKGRFTISRDNATNTVYLQMNSLKPEDNAVYYCNVRLYTDGLKYDYWGQGTQVTVSS	low polyreactivity
QVHLVESGGGLVQAGGSLRLSCAASGRIYAFYAMGWYRQAPGKERELVAAISSGGNTKYADSVKGRFTISRDNAKNTVYLQMNSLKPEYTAVFYCDARTPWYNKGDYWGLGTQVTVSS	low polyreactivity
